Results from US20250099579A1 (MARENGO THERAPEUTICS, published 2025).

Tests used:
cynomolgus IL2Ra = target: T1, cynomolgus IL2Ra (cynomolgus, UniProt H6WS54 22-213); assay: SPR (Biacore T200), BKM0186 captured via anti-human Fc on CM5 chip, receptor as analyte, steady state model
T1 construct: also called Cyno IL-2Rα
T1 sequence: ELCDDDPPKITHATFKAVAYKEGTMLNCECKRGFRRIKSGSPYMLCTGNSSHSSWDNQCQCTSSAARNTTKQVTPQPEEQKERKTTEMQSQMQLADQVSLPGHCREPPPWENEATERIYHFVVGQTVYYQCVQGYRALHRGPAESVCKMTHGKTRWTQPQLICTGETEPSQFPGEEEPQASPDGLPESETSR
Procedure: (§1) All interactions between bispecifics and relevant receptors were analyzed by Surface Plasmon Resonance (SPR) on a Biacore T200 instrument.
(§2) BKM0186 at 2 μg/mL was immobilized on a Series S CM5 chip via human Fe antibody to 80 RU. Human IL2Ra and cynomolgus IL2Ra were diluted to 500 nM, human IL2R beta-gamma and cynomolgus IL2R beta-gamma were diluted to 125 nM, and human IL2R trimeric complex was diluted to 50 nM and then serially diluted two-fold in 1×HBS-EP+ buffer for a total of 10 concentrations. Multi cycle kinetics was run where the chip is regenerated with 3 M Magnesium Chloride between each cycle followed by a new injection of BKM0186. An association time of 120 seconds and a dissociation time of 150 seconds for human and cyno IL2Ra, 300 seconds for human and cyno IL2R beta-gamma, and 900 seconds for the human IL2R trimeric complex was done at 30 uL/min. This assay was run in 1×HBS-EP+ Buffer pH 7.4 and 25 C. Sensorgrams were corrected by double reference subtraction using the reference flow cell not treated with BKM0186 and a blank cycle of buffer alone. BIAevaluation software was used for data analysis and the data were fit using a 1:1 Langmuir binding model for calculation of the KD value (Koff/Kon). Due to faster off rates observed for human and cyno IL2Ra binding, the data were fit using a steady state model where equilibrium binding response is analyzed.

Human IL2Ra = target: T2, Human IL2Ra (human, UniProt P01589 22-213, limits assumed); assay: as above
T2 construct: also called Human IL-2Rα; CD25
T2 sequence (looked up): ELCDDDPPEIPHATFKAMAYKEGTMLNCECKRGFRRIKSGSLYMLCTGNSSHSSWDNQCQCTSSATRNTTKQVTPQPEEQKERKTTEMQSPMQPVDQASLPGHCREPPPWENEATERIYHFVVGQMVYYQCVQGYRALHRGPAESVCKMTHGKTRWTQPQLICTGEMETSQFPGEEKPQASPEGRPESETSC
Procedure: as §1, §2

human IL2R beta-gamma = target: T3, human IL2R beta-gamma (human, UniProt P14784 27-239; P31785 23-262); assay: SPR (Biacore T200), BKM0186 captured via anti-human Fc on CM5 chip, receptor as analyte, 1:1 Langmuir model
T3 construct: Soluble heterodimer used as analyte; also called Human IL-2Rβγ; IL-2Rβγ heterodimer
T3 sequence (looked up) 1: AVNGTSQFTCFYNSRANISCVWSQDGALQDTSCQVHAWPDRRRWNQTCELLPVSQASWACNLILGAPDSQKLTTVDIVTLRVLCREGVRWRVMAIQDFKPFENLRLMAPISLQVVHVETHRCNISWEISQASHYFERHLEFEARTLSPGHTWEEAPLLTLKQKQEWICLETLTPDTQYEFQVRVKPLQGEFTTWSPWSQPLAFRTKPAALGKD
T3 sequence (looked up) 2: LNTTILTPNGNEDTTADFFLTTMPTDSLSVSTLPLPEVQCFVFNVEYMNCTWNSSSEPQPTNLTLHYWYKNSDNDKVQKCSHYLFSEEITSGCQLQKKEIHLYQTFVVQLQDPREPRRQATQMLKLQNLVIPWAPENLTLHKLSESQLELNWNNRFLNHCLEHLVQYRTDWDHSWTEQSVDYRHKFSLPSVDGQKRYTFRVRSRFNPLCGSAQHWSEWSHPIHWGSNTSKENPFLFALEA
Procedure: as §1, §2

[1] = target: T4, cynomolgus IL2R beta-gamma (cynomolgus); assay: as above
T4 construct: also called Cyno IL-2Rβγ
Procedure: as §1, §2

Vβ6 TCR on human T cells [2] = target: Vβ6 TCR on human T cells (human); assay: cell-based or functional assay
[3] = target: T5, human IL2R trimeric complex (human, UniProt P01589 22-213; P14784 27-239; P31785 23-262); assay: SPR (Biacore T200), BKM0186 captured via anti-human Fc on CM5 chip, receptor complex as analyte, 1:1 Langmuir model
T5 construct: also called Human IL-2Rαβγ
T5 sequence (looked up) 1: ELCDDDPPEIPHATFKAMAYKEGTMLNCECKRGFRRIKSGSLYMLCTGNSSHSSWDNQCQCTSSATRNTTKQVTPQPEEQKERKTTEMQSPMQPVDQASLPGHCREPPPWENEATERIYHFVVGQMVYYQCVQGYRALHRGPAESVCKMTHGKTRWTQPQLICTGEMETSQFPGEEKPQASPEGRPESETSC
T5 sequence (looked up) 2: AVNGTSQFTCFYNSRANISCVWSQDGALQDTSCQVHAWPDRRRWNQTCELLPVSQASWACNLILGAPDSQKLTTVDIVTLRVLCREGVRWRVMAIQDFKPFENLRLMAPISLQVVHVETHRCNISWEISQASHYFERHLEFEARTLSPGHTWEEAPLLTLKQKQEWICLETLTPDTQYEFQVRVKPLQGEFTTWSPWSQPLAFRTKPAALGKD
T5 sequence (looked up) 3: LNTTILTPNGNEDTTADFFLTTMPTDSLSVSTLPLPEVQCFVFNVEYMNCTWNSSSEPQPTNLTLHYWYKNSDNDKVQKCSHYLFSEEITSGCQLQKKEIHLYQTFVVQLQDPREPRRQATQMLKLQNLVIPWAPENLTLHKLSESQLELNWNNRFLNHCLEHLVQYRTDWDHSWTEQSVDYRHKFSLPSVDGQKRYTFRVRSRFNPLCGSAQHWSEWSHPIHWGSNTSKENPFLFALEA
Procedure: as §1, §2

Vβ6 TCR on human T cells [4] = target: T6, Vβ6 TCR on human T cells (human); assay: flow cytometry on sorted, activated TCRVβ6-5 positive CD25 hi human T cells (cells carry both Vβ6 TCR and CD25; co-operative binding)
T6 construct: whole, on cells; Polyclonal T cells: CDR3 and the paired alpha chains vary; also called Vβ6 T cells; TCRVβ6-5
Source text: Pan T-cells were isolated from PBMC's via negative selection on the autoMACS. T-cells were stained for TCRVβ6-5 and sorted on the Sony SH800 cell sorter into cell culture media. Sorted TCRVβ6-5 T-cells and non-sorted pan T-cells were activated and expanded using anti-CD3/CD28 beads followed by IL-2 culture. Portion of activated T-cells were allowed to rest for 3-days in serum-free media. Anti-CD25 FACS staining to confirm CD25 upregulation (from activation) and downmodulation (from resting). T-cells that represents TCRVβ6-5(pos) CD25(hi); TCRVβ6-5(pos) CD25(low); TCRVβ6-5(neg) CD25(hi); TCRVβ6-5(neg) CD25(low) are checked for BKM0186 construct binding.
This avidity effect confirms that BKM0186 engages both Vβ6 and IL-2R via a cis binding mode.

cynomolgus Vβ6 TCR = target: T7, cynomolgus Vβ6 TCR (cynomolgus); assay: SPR (Biacore T200), BKM0186 captured via anti-human Fc on CM5 chip (80 RU), TCR as analyte, multi cycle kinetics, 1:1 Langmuir model, 25 C
T7 construct: also called Cyno TCRVβ
Procedure: as §1
(§3) BKM0186 at 2 μg/mL was immobilized on a Series S CM5 chip via human Fe antibody to 80 RU. Human Vβ6 TCR and cynomolgus Vβ6 TCR were diluted to 250 nM and then serially diluted two-fold in 1×HBS-EP+ buffer for a total of 10 concentrations. Multi cycle kinetics was done with an association time of 120 seconds and a dissociation time of 600 seconds, for human Vβ6 TCR and 300 seconds for cynomolgus Vβ6 TCR at 30 uL/min. This assay was run in 1×HBS-EP+ Buffer pH 7.4 at 25 C. Sensorgrams were corrected by reference subtraction using the reference flow cell not treated with BKM0186. BIAevaluation software was used for data analysis and the data were fit using a 1:1 Langmuir binding model for calculation of the KD value (Koff/Kₒₙ).

Human Vβ6 TCR = target: T8, Human Vβ6 TCR (human); assay: as above
T8 construct: The method text calls it Human Vβ6 TCR; also called Human TCRVβ
Procedure: as §1, §3

T6 sequence (A0A0K0K1A5 22-114): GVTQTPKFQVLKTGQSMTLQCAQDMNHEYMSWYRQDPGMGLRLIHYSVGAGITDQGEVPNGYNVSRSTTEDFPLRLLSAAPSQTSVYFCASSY

Kd (cynomolgus IL2Ra): 48 nM
Kd (Human IL2Ra): 45 nM
Kd (human IL2R beta-gamma): 3.8 nM
Kd [1]: 3.3 nM
EC50 of proliferation of Vβ6 T cells as a proportion of total CD4+ T cells (human PBMCs, 5 days) (Vβ6 TCR on human T cells [2]): 12 nM
EC50 of proliferation of Vβ6 T cells as a proportion of total CD8+ T cells (human PBMCs, 5 days) (Vβ6 TCR on human T cells [2]): 6 nM
Kd [3]: 0.1 nM
EC50 (Vβ6 TCR on human T cells [4]): 0.5 nM
Kd (cynomolgus Vβ6 TCR): 4.9 nM
Kd (Human Vβ6 TCR): 1.7 nM
B1: BKM0186 (bispecific antibody, human IgG1, kappa, N297A)
heavy: QVQLVQSGAEVKKPGSSVKVSCKASGHDFRLTYIHWVRQAPGQGLEWMGRVSAGSGNVKYNEKFKGRVTITADTSTSTAYMELSSLRSEDTAVYYCAVSYYSYDVLDYWGQGTTVTVSSASTKGPSVFPLAPSSKSTSGGTAALGCLVKDYFPEPVTVSWNSGALTSGVHTFPAVLQSSGLYSLSSVVTVPSSSLGTQTYICNVNHKPSNTKVDKRVEPKSCDKTHTCPPCPAPELLGGPSVFLFPPKPKDTLMISRTPEVTCVVVDVSHEDPEVKFNWYVDGVEVHNAKTKPREEQYASTYRVVSVLTVLHQDWLNGKEYKCKVSNKALPAPIEKTISKAKGQPREPQVCTLPPSREEMTKNQVSLSCAVKGFYPSDIAVEWESNGQPENNYKTTPPVLDSDGSFFLVSKLTVDKSRWQQGNVFSCSVMHEALHNHYTQKSLSLSPGK
chain: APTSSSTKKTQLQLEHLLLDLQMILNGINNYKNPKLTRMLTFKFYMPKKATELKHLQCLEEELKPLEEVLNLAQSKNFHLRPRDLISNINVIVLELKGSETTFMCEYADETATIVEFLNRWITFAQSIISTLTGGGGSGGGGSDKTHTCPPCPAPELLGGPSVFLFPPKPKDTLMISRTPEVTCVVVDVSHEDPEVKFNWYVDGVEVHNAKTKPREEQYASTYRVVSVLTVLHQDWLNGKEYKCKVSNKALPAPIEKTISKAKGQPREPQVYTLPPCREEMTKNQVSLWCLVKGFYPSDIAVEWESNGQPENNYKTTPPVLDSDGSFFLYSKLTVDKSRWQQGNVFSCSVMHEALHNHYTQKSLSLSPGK
light: DIQMTQSPSFLSASVGDRVTITCKASQNVADRVVWHQQKPGKAPKALIYSSSHRYKGVPSRFSGSGSGTEFTLTISSLQPEDFATYFCQQFKSYPLTFGQGTKLEIKRTVAAPSVFIFPPSDEQLKSGTASVVCLLNNFYPREAKVQWKVDNALQSGNSQESVTEQDSKDSTYSLSSTLTLSKADYEKHKVYACEVTHQGLSSPVTKSFNRGEC
notes: also called TCRVβ/IL-2 (C125A) bispecific; IL2xTCRVβ
